Measured values published in patent publication US20250304644A1, “PEPTIDES TRIPLE AGONISTS OF GIP, GLP-1 AND GLP-2” (BAINAN BIOTECH APS, priority 2021, published 2025).
*1 amine or outer side, *2 acyl side, *3 side chain or, on linkers, in order; H or OH if unused. Where no end group is shown, it is not given here. Side-chain parts run from the residue outwards. [ ]: non-standard residue; d: D form. The star is where a group is joined. C18 diacid = O=C(O)CCCCCCCCCCCCCCCCC(=O)*; γGlu = O=C(O)[C@H](CCC(=O)[*:2])N[*:1]; AEEA = NCCOCCOCC(=O)O; Aib = CC(C)(N)C(=O)O

Key:
Experiment in all cases: cell-based or functional assay
[1] = biological target: human GLP-1R (glucagon-like peptide-1 receptor) (human, UniProt P43220 24-463)
human SNAP-tagged GLP-1R = human SNAP-tagged GLP-1R (human, UniProt P43220 24-463, SNAP tag labeled with Tag-Lite SNAP-Lumi4-Tb)
human SNAP-tagged GLP-2R = biological target: T1, human SNAP-tagged GLP-2R (human, UniProt O95838 1-553, SNAP tag labeled with Tag-Lite SNAP-Lumi4-Tb)
T1 sequence (looked up): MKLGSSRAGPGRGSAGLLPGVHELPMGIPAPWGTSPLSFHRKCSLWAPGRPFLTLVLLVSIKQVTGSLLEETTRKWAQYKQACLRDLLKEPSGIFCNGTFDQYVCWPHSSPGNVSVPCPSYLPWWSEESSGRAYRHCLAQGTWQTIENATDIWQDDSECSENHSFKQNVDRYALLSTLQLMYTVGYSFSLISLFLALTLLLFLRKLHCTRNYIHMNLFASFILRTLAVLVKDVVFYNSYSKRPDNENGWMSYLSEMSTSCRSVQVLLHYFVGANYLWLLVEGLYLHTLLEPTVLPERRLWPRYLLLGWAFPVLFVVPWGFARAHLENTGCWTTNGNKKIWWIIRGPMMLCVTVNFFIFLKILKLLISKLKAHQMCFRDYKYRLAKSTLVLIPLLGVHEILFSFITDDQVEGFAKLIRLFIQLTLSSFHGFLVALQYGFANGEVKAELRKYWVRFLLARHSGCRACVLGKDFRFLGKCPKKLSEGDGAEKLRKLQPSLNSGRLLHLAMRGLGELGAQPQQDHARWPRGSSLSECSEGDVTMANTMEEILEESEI

[2] = biological target: T2, Human N-terminally SNAP-tagged GIPR (human, UniProt P48546 22-466, SNAP tag labeled with Tag-Lite SNAP-Lumi4-Tb)
T2 sequence (looked up): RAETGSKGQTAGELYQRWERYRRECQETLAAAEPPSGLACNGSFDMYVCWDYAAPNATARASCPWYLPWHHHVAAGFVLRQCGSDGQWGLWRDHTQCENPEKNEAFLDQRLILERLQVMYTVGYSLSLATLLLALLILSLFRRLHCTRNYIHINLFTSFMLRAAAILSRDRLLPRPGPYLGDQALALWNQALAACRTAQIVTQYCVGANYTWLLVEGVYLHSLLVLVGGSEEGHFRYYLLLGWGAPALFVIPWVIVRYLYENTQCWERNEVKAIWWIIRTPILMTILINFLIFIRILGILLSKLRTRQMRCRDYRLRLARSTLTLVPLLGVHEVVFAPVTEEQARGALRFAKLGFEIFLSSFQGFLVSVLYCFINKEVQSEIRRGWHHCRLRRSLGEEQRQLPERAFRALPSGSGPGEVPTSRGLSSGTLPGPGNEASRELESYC

[3] = biological target: T3, human GLP-2R (glucagon-like peptide-2 receptor) (human, UniProt O95838 1-553)
T3 sequence (looked up): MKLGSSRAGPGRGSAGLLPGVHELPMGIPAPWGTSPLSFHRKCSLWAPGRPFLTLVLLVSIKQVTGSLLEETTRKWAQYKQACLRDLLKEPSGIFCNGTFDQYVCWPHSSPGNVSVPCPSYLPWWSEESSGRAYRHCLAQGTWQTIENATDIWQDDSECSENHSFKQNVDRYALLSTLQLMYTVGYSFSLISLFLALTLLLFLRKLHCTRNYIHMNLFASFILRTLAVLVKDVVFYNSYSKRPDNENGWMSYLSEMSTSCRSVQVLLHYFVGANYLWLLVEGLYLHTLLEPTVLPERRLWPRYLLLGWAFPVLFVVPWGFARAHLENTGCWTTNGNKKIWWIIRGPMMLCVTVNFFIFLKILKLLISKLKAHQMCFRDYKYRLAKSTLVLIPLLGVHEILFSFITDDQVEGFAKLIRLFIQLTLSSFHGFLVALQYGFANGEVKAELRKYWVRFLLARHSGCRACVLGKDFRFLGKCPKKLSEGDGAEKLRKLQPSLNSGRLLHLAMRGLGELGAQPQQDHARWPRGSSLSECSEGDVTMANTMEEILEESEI

[4] = biological target: human glucagon receptor (GCGR) (human, UniProt P47871 26-477, limits assumed)
human glucagon receptor (GCGR), sequence (P47871 26-477 limits assumed): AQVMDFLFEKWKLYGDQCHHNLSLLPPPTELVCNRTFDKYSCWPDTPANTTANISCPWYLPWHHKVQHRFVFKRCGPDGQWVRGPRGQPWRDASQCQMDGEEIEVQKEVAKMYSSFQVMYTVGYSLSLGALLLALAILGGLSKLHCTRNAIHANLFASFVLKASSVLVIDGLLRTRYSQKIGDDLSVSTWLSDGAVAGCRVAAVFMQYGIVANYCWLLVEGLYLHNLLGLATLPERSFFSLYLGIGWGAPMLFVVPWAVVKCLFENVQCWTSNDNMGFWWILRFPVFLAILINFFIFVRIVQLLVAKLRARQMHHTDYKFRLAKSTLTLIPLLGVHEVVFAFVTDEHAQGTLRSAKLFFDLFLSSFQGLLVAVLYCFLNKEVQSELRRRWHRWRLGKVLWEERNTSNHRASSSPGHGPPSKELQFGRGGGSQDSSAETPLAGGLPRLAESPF

[5] = biological target: T4, human GIPR (glucose-dependent insulinotropic polypeptide receptor) (human, UniProt P48546 22-466)
T4 sequence (looked up): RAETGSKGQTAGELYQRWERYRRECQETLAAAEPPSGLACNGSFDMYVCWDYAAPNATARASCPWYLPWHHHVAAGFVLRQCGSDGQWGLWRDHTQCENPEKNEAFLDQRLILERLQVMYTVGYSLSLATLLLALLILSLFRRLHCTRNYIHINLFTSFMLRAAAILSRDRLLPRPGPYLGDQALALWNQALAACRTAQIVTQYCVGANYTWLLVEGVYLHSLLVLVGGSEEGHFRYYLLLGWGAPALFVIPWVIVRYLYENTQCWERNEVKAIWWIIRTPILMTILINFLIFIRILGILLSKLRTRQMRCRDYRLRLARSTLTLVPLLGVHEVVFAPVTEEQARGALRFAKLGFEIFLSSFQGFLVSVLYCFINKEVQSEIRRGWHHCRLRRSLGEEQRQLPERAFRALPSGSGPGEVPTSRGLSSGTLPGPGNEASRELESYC

Q: What does the source list for H[Aib]DGTFISDYSTILDALAARDFINWLIQTKITK([AEEA-AEEA-γGlu-C18 diacid])-OH [Compound 28]?
A: EC50 (nM) GLP-1R [1]: 3.98 nM; Efficacy GLP-1R [1]: 102; logEC50 GLP-1R [1]: 8.4; Absolute hGLP-1R internalization (AUC) (human SNAP-tagged GLP-1R): 0.96 AUC; Relative hGLP-1R internalization (%) (human SNAP-tagged GLP-1R): 1.14%; Absolute hGLP-2R internalization (AUC) (human SNAP-tagged GLP-2R): 12 AUC; Relative hGLP-2R internalization (%) (human SNAP-tagged GLP-2R): 24.8%; Absolute hGIPR internalization (AUC) [2]: 21.7 AUC; Relative hGIPR internalization (%) [2]: 59%; Efficacy GLP-2R [3]: 89; logEC50 GLP-2R [3]: 8.7; potency in Gs activation, measured as cAMP accumulation (-p Log EC50) [4]: < 7 -p Log EC50; EC50 (nM) GIPR [5]: 0.071 nM; Efficacy GIPR [5]: 119; pEC50 GIPR [5]: 10.2

Q: With HADGTFTSDYST[Aib]LDK([AEEA-AEEA-γGlu-C18 diacid])LAARDFINWLIQTKGKKNDWKHNITQ-OH [Compound 22] as the binder, how does the “EC50 (nM) GLP-1R” value [1] read?
A: Its value is 0.04 nM.

Q: And the “Efficacy GLP-1R” value [1]?
A: Its value is 116.

Q: What about the “logEC50 GLP-1R” value [1] of the same binder?
A: Its value is 10.5.

Q: What about the “Absolute hGLP-1R internalization (AUC)” value (human SNAP-tagged GLP-1R) of the same binder?
A: The value was 78.8 AUC.

Q: And the “Relative hGLP-1R internalization (%)” value (human SNAP-tagged GLP-1R)?
A: The value was 93.7%.

Q: What about the “Absolute hGLP-2R internalization (AUC)” value (human SNAP-tagged GLP-2R) of the same binder?
A: The value was 38 AUC.

Q: And the “Relative hGLP-2R internalization (%)” value (human SNAP-tagged GLP-2R)?
A: Its value is 78.2%.

Q: What about the “Absolute hGIPR internalization (AUC)” value [2] of the same binder?
A: Its value is 7 AUC.

Q: What about the “Relative hGIPR internalization (%)” value [2] of the same binder?
A: Its value is 19%.

Q: And the “EC50 (nM) GLP-2R” value [3]?
A: Its value is 0.6 nM.

Q: And the “Efficacy GLP-2R” value [3]?
A: Its value is 93.

Q: And the “logEC50 GLP-2R” value [3]?
A: The value was 9.3.

Q: And the “potency in Gs activation, measured as cAMP accumulation (-p Log EC50)” value [4]?
A: The value was < 7 -p Log EC50.

Q: What about the “EC50 (nM) GIPR” value [5] of the same binder?
A: Its value is 1.12 nM.

Q: And the “Efficacy GIPR” value [5]?
A: The value was 93.

Q: And the “pEC50 GIPR” value [5]?
A: The value was 9.

Q: Which results are given for HADGTFTSDYSTILDK([AEEA-AEEA-γGlu-C18 diacid])LAARDFINWLIQTKGKKNDWKHNITQ-OH [Compound 21]?
A: EC50 (nM) GLP-1R [1]: 0.05 nM; Efficacy GLP-1R [1]: 122; logEC50 GLP-1R [1]: 10.3; Absolute hGLP-1R internalization (AUC) (human SNAP-tagged GLP-1R): 94.7 AUC; Relative hGLP-1R internalization (%) (human SNAP-tagged GLP-1R): 113%; Absolute hGLP-2R internalization (AUC) (human SNAP-tagged GLP-2R): 36.3 AUC; Relative hGLP-2R internalization (%) (human SNAP-tagged GLP-2R): 74.6%; Absolute hGIPR internalization (AUC) [2]: 10.2 AUC; Relative hGIPR internalization (%) [2]: 28%; EC50 (nM) GLP-2R [3]: 0.6 nM; Efficacy GLP-2R [3]: 104; logEC50 GLP-2R [3]: 9.2; potency in Gs activation, measured as cAMP accumulation (-p Log EC50) [4]: < 7 -p Log EC50; EC50 (nM) GIPR [5]: 0.398 nM; Efficacy GIPR [5]: 104; pEC50 GIPR [5]: 9.4
